Test results published in the supplement of paper PMC10567573.

B1: RIPK4 (parent)
chain: VSVNAQTLDGRTPLHLAAQRGHYR
B2: C1orf137 (parent)
chain: RQHHHQSSFPGSLPQETNLTLKVC

Variants of: B1
Assay: protein stability index of a GFP-peptide fusion (GPS, HEK-293T) (PSI 1-6); higher = more stable
Settings: c terminus: a fixed tail appended
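Also: lentivirally expressed fusions sorted by FACS into six bins by GFP to DsRed ratio, PSI derived from sequencing read proportions per bin multiplied by bin number.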

Protein stability index: each site, then its substitutions
T12: Q 3.57 | R 3.23 | S 3.35 | V 3.13 | W 2.82 | Y 2.4
P13: A 3.33 | C 2.22 | D 3.56 | E 3.26 | F 2.34 | G 2.94 | H 2.9 | I 2.17 | K 2.78 | L 2.25 | M 2.42 | N 3.38 | Q 3.15 | R 3.1 | S 3.3 | T 2.92 | V 2.84 | W 1.75 | Y 1.93
L14: A 4.07 | C 1.96 | D 3.62 | E 4.47 | F 3.1 | G 3.52 | H 3.96 | I 3.39 | K 3.96 | M 3.26 | N 3.92 | P 4 | Q 3.75 | R 3.7 | S 3.83 | T 3.5 | V 3.4 | W 2.88 | Y 3.21
H15: A 3.79 | C 3.01 | D 3.93 | E 3.49 | F 2.58 | G 3.08 | I 2.79 | K 3.24 | L 3.24 | M 2.78 | N 3.64 | P 3.94 | Q 4.11 | R 3.89 | S 3.74 | T 3.73 | V 3.2 | W 2.62 | Y 2.56
L16: A 3.82 | C 3.19 | D 3.8 | E 4.29 | F 3.11 | G 3.45 | H 3.28 | I 3.42 | K 3.88 | M 3.34 | N 3.97 | P 3.73 | Q 3.83 | R 3.96 | S 4.04 | T 3.64 | V 3.5 | W 3.09 | Y 3.45
A17: C 3.15 | D 3.33 | E 3.22 | F 2.26 | G 3.51 | H 3.27 | I 2.45 | K 3.41 | L 3.02 | M 3.31 | N 3.38 | P 3.67 | Q 3.36 | R 3.11 | S 3.34 | T 3.45 | V 3.35 | W 2.45 | Y 2.54
A18: C 2.61 | D 3.31 | E 3.13 | F 1.89 | G 3.5 | H 3.13 | I 2.75 | K 2.58 | L 2.64 | M 2.42 | N 3.46 | P 3.21 | Q 3.29 | R 3.32 | S 3.38 | T 3.08 | V 2.97 | W 2.09 | Y 2.19
Q19: A 3.44 | C 2.97 | D 3.12 | E 3.18 | F 1.94 | G 3.53 | H 3.27 | I 2.59 | K 3.95 | L 2.52 | M 2.88 | N 3.41 | P 2.67 | R 4.04 | S 3.08 | T 3.58 | V 2.28 | W 2.12 | Y 2.63
R20: A 3.02 | C 2.69 | D 3.62 | E 3.43 | F 2.14 | G 2.96 | H 2.53 | I 2.58 | K 3 | L 2.13 | M 2.29 | N 2.71 | P 2.95 | Q 3.12 | S 2.65 | T 2.85 | V 2.85 | W 2.5 | Y 2.41
G21: A 2.77 | C 2.44 | D 2.86 | E 3.58 | F 2.34 | H 3.26 | I 2.24 | K 3.33 | L 2.94 | M 2.68 | N 2.88 | P 3.49 | Q 3.35 | R 3.47 | S 2.66 | T 2.88 | V 2.93 | W 2.05 | Y 2.81
H22: A 3.3 | C 2.98 | D 3.23 | E 3.27 | F 2.96 | G 4.53 | I 2.83 | K 3.89 | L 2.69 | M 2.96 | N 3.48 | P 2.89 | Q 3.56 | R 4.29 | S 3.29 | T 3.57 | V 3.79 | W 2.23 | Y 2.47
Y23: A 3.92 | C 3.43 | D 4.49 | E 4.39 | F 2.98 | G 4.25 | H 3.42 | I 3.39 | K 4.12 | L 3.51 | M 4.03 | N 4.17 | P 4.11 | Q 3.96 | R 4.19 | S 3.83 | T 4.12 | V 4 | W 3.07
R24: A 2.81 | C 2.2 | D 3.3 | E 2.87 | F 2.41 | G 3.1 | H 2.69 | I 2.05 | K 3.11 | L 2.13 | M 2.87 | N 2.98 | P 3.08 | Q 2.82 | S 3.01 | T 2.99 | V 2.43 | W 2.48 | Y 2.66

Variants of: B2
Assay: as above
Settings: c terminus: a fixed tail appended

Protein stability index of substitutions, site by site:
R1: A 2.7 | C 1.97 | D 3.79 | E 3.58 | F 1.63 | G 3.69 | H 3.2 | I 3.28 | K 2.88 | L 2.44 | M 2.87 | N 2.7 | P 2.79 | Q 3.44 | S 3.4 | T 3.12 | V 3.05 | W 3.5 | Y 2.07
Q2: A 2.67 | C 2.04 | D 3.06 | E 2.59 | F 3.96 | G 3.57 | H 2.27 | I 2.28 | K 2.31 | L 2.4 | M 2.88 | N 2.62 | P 2.77 | R 3.04 | S 2.43 | T 3.45 | V 2.47 | W 2.58 | Y 2.63
H3: A 2.84 | C 2.54 | D 2.87 | E 3.69 | F 2.04 | G 3.11 | I 3.06 | K 3.31 | L 2.34 | M 3.25 | N 2.75 | P 2.77 | Q 3.06 | R 2.88 | S 3.36 | T 3.13 | V 3.09 | Y 2.57
H4: A 2.94 | C 2.87 | D 3.56 | E 3.15 | F 2.74 | G 3.52 | I 2.34 | K 3.26 | L 3.13 | M 2.37 | N 3.14 | P 3.19 | Q 3.9 | R 1.94 | S 2.96 | T 3.36 | V 2.82 | W 2.87 | Y 2.89
H5: A 3.06 | C 3.25 | D 3.36 | E 3.97 | F 2.33 | G 2.81 | I 2.66 | K 2.34 | L 2.73 | M 2.63 | N 2.91 | P 2.9 | Q 2.65 | R 3.64 | S 2.51 | T 3.28 | V 3.23 | W 2.27 | Y 2.85
Q6: A 2.61 | C 1.72 | D 3.39 | E 2.88 | F 2.3 | G 3.22
